From the supplement of paper PMC12764529 come the findings set out here.

Data set [1] is described as follows: folding stability dG unfold from trypsin proteolysis; higher = more stable. A digest of the protocol:
(§1)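 Designed mini-proteins (under 80 residues, no cysteine) in a PA-tagged cDNA display construct were digested with trypsin and chymotrypsin. Each protease was used at 11 concentrations (threefold dilutions) plus a no-protease condition, followed by sequencing. K50 was inferred by Bayesian fitting of sequencing counts, and unfolding free energy was derived against a sequence-predicted unfolded-state K50 and a shared folded-state K50, per protease or combined. Only designs with AlphaFold2 dimer inter-PAE above 15 were kept.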

Data set [2] is described as follows: folding stability dG unfold from chymotrypsin proteolysis; higher = more stable. The procedure, abridged:
as §1

The nature of data set [3]: folding stability dG unfold (combined trypsin and chymotrypsin); higher = more stable. The procedure, abridged:
as §1

± gives the half width of the 95% confidence interval.

Regarding “SAGGMTITIEKEGDTLKVTITIRDAATNETYTVEATLTRKEDGSLTLEIRFEDGSTKTINLKDIKLVSAGGS [r16_154_TrROS_Hall]”, the “folding stability dG unfold” value came out at 3 ± 0.21 kcal/mol in data set [1], 4.11 ± 0.41 kcal/mol in data set [2] and 3.76 ± 0.47 kcal/mol in data set [3].
Taken in the same sequence, the figures for “SAGGMTKTILIYDEETGVLVRIEIKVNPETGEIEEIKIETETLEDGTVKMKITLKDGTEIEVEIKPLPSAGG [r13_515_TrROS_Hall]” were 3.45 ± 0.46 kcal/mol, 3.08 ± 0.28 kcal/mol and 3.25 ± 0.62 kcal/mol.
In the case of “SAGGMTLDELRALLAAGKVTIEPVAPDRWLVTVRGPDGEEFTFEFESLEELLDALRAIPGLEVEVRPVSAGG [r13_600_TrROS_Hall]”, the results for the “folding stability dG unfold” value in data set [1], in data set [2] and in data set [3] were 3.29 ± 0.1 kcal/mol, 3.905 ± 0.036 kcal/mol and 3.71 ± 0.044 kcal/mol, respectively.
For the sequence “SAGGMTLDQLKHALRHKKMQIHEPNPNGWYVTFQNPDGKPPTFPVKSDDELRDILRDAPGFEVEVQPVSAGG [r13_600_TrROS]”, the “folding stability dG unfold” value in data set [1] is -0.0886 ± 0.17 kcal/mol; in data set [2], 0.84 ± 0.16 kcal/mol; in data set [3], 0.608 ± 0.2 kcal/mol.
For the sequence “SAGGMTLEDLAGQSIEEALDLIEENGWDEVTITYPGGSKIEIKYNKDGPIEVEWENPDGNKQTFTIPSAGGS [r8_51_TrROS]”, the “folding stability dG unfold” value in data set [1] came to 0.644 ± 0.074 kcal/mol; in data set [2] it was 0.907 ± 0.1 kcal/mol; in data set [3], 0.833 ± 0.083 kcal/mol.
Taken in the same sequence, the figures for “SAGGMTLEELKEALKKLPPNVKEVKITVVEKNGKLVVVVEVNGKKLVIEFDSEEERKLAEELVKELLSSAGG [r13_287_TrROS_Hall]” were 3.75 ± 0.32 kcal/mol, 3.13 ± 0.16 kcal/mol and 3.45 ± 0.24 kcal/mol.
Turning to “SAGGMTLEITFPPNVKKVRVEFDEETNEVKVEVEEVDGELVIRVEVPPGQELSEEELERLKKLLEELSAGGS [r16_359_TrROS_Hall]”, the results for the “folding stability dG unfold” value in data set [1], in data set [2] and in data set [3] were 1.34 ± 0.037 kcal/mol, 1.79 ± 0.072 kcal/mol and 1.65 ± 0.083 kcal/mol, respectively.
Taken in the same sequence, the figures for “SAGGMTPEEKEEIAKKFAEELLKKLKEGDPNVKVETEVDPEKGVVKIKVINLNTKKPKTIEIPFSELASAGG [r13_354_TrMRF]” were 1.76 ± 0.052 kcal/mol, 1.83 ± 0.034 kcal/mol and 1.77 ± 0.1 kcal/mol.
Taken in the same sequence, the figures for “SAGGMTPSVLSNLSEEERKEAVRDFIIEFIKKAFPNVPEDFSVEEVPVLVYDLKTGKLFEVTVHLEGKSAGG [r13_555_TrMRF]” were 1.19 ± 0.083 kcal/mol, 2.16 ± 0.1 kcal/mol and 1.73 ± 0.15 kcal/mol.
Take “SAGGMTPVPVKLLSEESSSVSTLPNGETVTTTPSLAYSPLGFYVLTTTTTYPATPVTTTTSTVVPLSVSAGG [r19_320_JUSTAS]”: the “folding stability dG unfold” value is 0.458 ± 0.041 kcal/mol in data set [1], -0.151 ± 0.22 kcal/mol in data set [2] and 0.223 ± 0.16 kcal/mol in data set [3].
On to “SAGGMVDVTITFTKPDGTPETRPIPASSLPLEELVARIRALREAGVEAEVELPPSLPEEVREALARLLSAGG [r13_251_JUSTAS]”, for which the “folding stability dG unfold” value amounted to 1.78 ± 0.039 kcal/mol in data set [1], 2.09 ± 0.071 kcal/mol in data set [2] and 1.96 ± 0.053 kcal/mol in data set [3].
In the same order, the values of “SAGGMVEIELVPMSEEELKKLREELPENEILIVVKEDGLVLIVRVEKSEEEAEKLAEELRKLLEELPSAGGS [r16_311_TrROS_Hall]” are 2.05 ± 0.17 kcal/mol, 0.935 ± 0.14 kcal/mol and 1.69 ± 0.23 kcal/mol.
Regarding “SAGGMVEREFTLDGTRITITYVPSEGVILATFPDRTVTVPVPESLKDKSPEEVIELAKEFAKEYLESSAGGS [r16_215_JUSTAS]”, the “folding stability dG unfold” value in data set [1] is 4.14 ± 0.16 kcal/mol; in data set [2] it was 3.08 ± 0.041 kcal/mol; in data set [3] it was 3.43 ± 0.058 kcal/mol.
In the same order, the values of “SAGGMVFKTKDGYLVRIEVFNKETGEKTEILVPEENIEELLKALESKPGVTEVKVEIYKLKDGKPEKLSAGG [r13_914_TrROS_Hall]” are 0.862 ± 0.026 kcal/mol, 1.38 ± 0.09 kcal/mol and 1.21 ± 0.095 kcal/mol.
As for “SAGGMVFTITVRNPDGTVVELPFDVSDVTITPKNGDLYITVAGGKVLTLKTDEVLDIDPAAIAAANAASAGG [r13_925_JUSTAS]”, the “folding stability dG unfold” value in data set [1] amounted to 0.901 ± 0.052 kcal/mol; in data set [2], 1.26 ± 0.14 kcal/mol; in data set [3], 1.13 ± 0.16 kcal/mol.
In the same order, the values of “SAGGMVIEKDGDYEYVLLLVDSPEGFPVEVAKELLKKEFGLKEIKVLSAKPLPNGIRLVLVKNKFEKSAGGS [r16_234_TrMRF]” are 0.875 ± 0.023 kcal/mol, 1.57 ± 0.062 kcal/mol and 1.3 ± 0.052 kcal/mol.
“SAGGMVIVVKTPGGATSITLGNLTITQDPSTGVAVAEATPEQVEALKKDPALKDIESIEILPEEELKSAGGS [r8_493_JUSTAS]”: the “folding stability dG unfold” value in data set [1] turned out to be 0.307 ± 0.024 kcal/mol; in data set [2], 0.648 ± 0.056 kcal/mol; in data set [3], 0.458 ± 0.14 kcal/mol.
In the same order, the values of “SAGGMVKLFTWPPGQPEEFAEKLRKLPDVVEVTIEEVDGALRIRIKLKGKDVEVTTDPAGRWSVTVVGSAGG [r13_907_JUSTAS]” are 2.15 ± 0.034 kcal/mol, 2.35 ± 0.028 kcal/mol and 2.28 ± 0.048 kcal/mol.
Taken in the same sequence, the figures for “SAGGMVKTITKPMPLEELEKVYEEAKEAIEAGYEVIFTYPLPDGTTITIKTDYETKKIVEIKTSKPVSSAGG [r13_873_JUSTAS]” were -0.345 ± 0.67 kcal/mol, 1.09 ± 0.059 kcal/mol and 0.687 ± 0.28 kcal/mol.
Taken in the same sequence, the figures for “SAGGMVLEVEFTGPLSEVEAFIEELKAKPGVELLSVEIEVKPLPGPPVRYRVKLEVKIYDPENPVLLSAGGS [r8_374_JUSTAS]” were 2.26 ± 0.22 kcal/mol, 3.07 ± 0.077 kcal/mol and 2.74 ± 0.37 kcal/mol.
For the sequence “SAGGMVLVIVSDLKPGELNEIIEKLKKEGLEVKLFLPNGEEIDADPNIEDLPEDVPVVLLVRHPDKSSAGGS [r16_31_TrMRF]”, the “folding stability dG unfold” value is 1.87 ± 0.079 kcal/mol in data set [1], 2.494 ± 0.017 kcal/mol in data set [2] and 2.35 ± 0.053 kcal/mol in data set [3].
In the same order, the values of “SAGGMVLVRIRVDMSPEERKRLEEELRKRVTEVRYLPEDEDVVEVRVSPEALAELPEERITEVELLPSAGGS [r16_328_TrROS_Hall]” are 0.217 ± 0.15 kcal/mol, -0.654 ± 0.32 kcal/mol and -0.0298 ± 0.097 kcal/mol.
As to “SAGGMVRITRDEDGILRVELFVEGTPEEAEEEAARLVRLLEELGFEEVRVEREPFGDGVVVTIEAKASAGGS [r8_113_TrMRF]”, the “folding stability dG unfold” value in data set [1] turned out to be 2.55 ± 0.11 kcal/mol; in data set [2] it was 2.86 ± 0.083 kcal/mol; in data set [3], 2.74 ± 0.076 kcal/mol.
In the same order, the values of “SAGGMVRVTVVPTPGRAGEPVTLVIEHPDGTRTVPLPPDTSPEEARAAAERLAEEEGLDVAEVVFEASAGGS [r16_753_JUSTAS]” are 0.243 ± 0.07 kcal/mol, 0.428 ± 0.086 kcal/mol and 0.376 ± 0.098 kcal/mol.
Taken in the same sequence, the figures for “SAGGMVTIELREVSEEEALKLAEELPPNTLLIPFPFGNLVLPVRVPDDPEVREKVAEEIRKFLEALPSAGGS [r16_311_TrMRF]” were 1.13 ± 0.023 kcal/mol, 0.0455 ± 0.19 kcal/mol and 0.67 ± 0.13 kcal/mol.
Take “SAGGMVTITVSIEEGKGYAVITITIDDETLTIKIPIPNMTEEDIKAKAEEIAKELAEKYGIEEIKLESAGGS [r16_249_JUSTAS]”: the “folding stability dG unfold” value is 3.08 ± 0.16 kcal/mol in data set [1], 3.37 ± 0.13 kcal/mol in data set [2] and 3.34 ± 0.32 kcal/mol in data set [3].
